Experimental data taken from article PMC4477857 (The Journal of Cell Biology, 2015).

Target: T1, purified recombinant STIL (human, UniProt Q15468 1-1287)
T1 sequence (looked up): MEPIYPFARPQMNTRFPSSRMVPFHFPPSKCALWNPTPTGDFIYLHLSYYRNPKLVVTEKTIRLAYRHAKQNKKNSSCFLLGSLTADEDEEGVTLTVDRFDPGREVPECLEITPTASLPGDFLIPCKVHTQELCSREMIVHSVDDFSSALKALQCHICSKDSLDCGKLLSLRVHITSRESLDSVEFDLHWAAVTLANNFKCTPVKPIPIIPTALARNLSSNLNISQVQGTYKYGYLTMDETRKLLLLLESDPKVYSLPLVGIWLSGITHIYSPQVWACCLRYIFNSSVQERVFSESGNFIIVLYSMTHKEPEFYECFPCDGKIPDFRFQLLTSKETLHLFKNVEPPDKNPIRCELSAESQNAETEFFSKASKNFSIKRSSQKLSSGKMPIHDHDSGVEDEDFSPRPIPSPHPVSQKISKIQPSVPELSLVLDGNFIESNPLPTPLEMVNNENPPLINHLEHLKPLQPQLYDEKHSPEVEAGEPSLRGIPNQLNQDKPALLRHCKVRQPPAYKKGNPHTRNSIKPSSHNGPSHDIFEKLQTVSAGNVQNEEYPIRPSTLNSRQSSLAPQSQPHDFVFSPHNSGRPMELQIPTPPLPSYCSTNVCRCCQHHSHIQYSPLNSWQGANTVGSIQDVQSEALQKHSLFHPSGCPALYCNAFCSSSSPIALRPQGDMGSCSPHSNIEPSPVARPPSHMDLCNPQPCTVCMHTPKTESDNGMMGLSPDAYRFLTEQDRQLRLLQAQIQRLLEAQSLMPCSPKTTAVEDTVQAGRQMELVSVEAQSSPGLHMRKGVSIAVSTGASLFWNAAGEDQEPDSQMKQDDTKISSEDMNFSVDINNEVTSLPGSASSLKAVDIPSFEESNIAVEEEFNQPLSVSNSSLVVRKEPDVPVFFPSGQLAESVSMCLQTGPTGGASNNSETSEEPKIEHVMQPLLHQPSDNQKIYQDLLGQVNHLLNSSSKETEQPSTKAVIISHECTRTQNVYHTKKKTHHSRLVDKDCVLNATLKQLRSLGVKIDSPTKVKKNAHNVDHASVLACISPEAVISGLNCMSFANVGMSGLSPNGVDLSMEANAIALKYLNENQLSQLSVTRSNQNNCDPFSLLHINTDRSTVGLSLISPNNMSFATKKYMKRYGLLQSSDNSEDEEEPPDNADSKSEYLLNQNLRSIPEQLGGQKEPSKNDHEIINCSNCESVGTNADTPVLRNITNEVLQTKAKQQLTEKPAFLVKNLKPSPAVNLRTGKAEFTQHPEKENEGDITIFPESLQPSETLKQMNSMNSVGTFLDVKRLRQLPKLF
Test: pull-down

B1: GST-hPlk4 (enzyme, human, UniProt O00444 1-970, looked up)
chain: MATCIGEKIEDFKVGNLLGKGSFAGVYRAESIHTGLEVAIKMIDKKAMYKAGMVQRVQNEVKIHCQLKHPSILELYNYFEDSNYVYLVLEMCHNGEMNRYLKNRVKPFSENEARHFMHQIITGMLYLHSHGILHRDLTLSNLLLTRNMNIKIADFGLATQLKMPHEKHYTLCGTPNYISPEIATRSAHGLESDVWSLGCMFYTLLIGRPPFDTDTVKNTLNKVVLADYEMPSFLSIEAKDLIHQLLRRNPADRLSLSSVLDHPFMSRNSSTKSKDLGTVEDSIDSGHATISTAITASSSTSISGSLFDKRRLLIGQPLPNKMTVFPKNKSSTDFSSSGDGNSFYTQWGNQETSNSGRGRVIQDAEERPHSRYLRRAYSSDRSGTSNSQSQAKTYTMERCHSAEMLSVSKRSGGGENEERYSPTDNNANIFNFFKEKTSSSSGSFERPDNNQALSNHLCPGKTPFPFADPTPQTETVQQWFGNLQINAHLRKTTEYDSISPNRDFQGHPDLQKDTSKNAWTDTKVKKNSDASDNAHSVKQQNTMKYMTALHSKPEIIQQECVFGSDPLSEQSKTRGMEPPWGYQNRTLRSITSPLVAHRLKPIRQKTKKAVVSILDSEEVCVELVKEYASQEYVKEVLQISSDGNTITIYYPNGGRGFPLADRPPSPTDNISRYSFDNLPEKYWRKYQYASRFVQLVRSKSPKITYFTRYAKCILMENSPGADFEVWFYDGVKIHKTEDFIQVIEKTGKSYTLKSESEVNSLKEEIKMYMDHANEGHRICLALESIISEEERKTRSAPFFPIIIGRKPGSTSSPKALSPPPSVDSNYPTRERASFNRMVMHSAASPTQAPILNPSMVTNEGLGLTTTASGTDISSNSLKDCLPKSAQLLKSVFVKNVGWATQLTSGAVWVQFNDGSQLVVQAGVSSISYTSPNGQTTRYGENEKLPDYIKQKLQCLSSILLMFSNPTPNFH
- binding result: binds
